{
  "source": "patent US20200164038A1",
  "about": "“MODIFIED NUCLEOSIDE, NUCLEOTIDE, AND NUCLEIC ACID COMPOSITIONS” (ModernaTX, Inc., priority 2011, published 2020)",
  "molecules": {"B1": {"name": "G-CSF: human G-CSF mRNA, SEQ ID NO: 6, polyA about 160 nt, Cap1, fully modified with 5-methylcytosine and pseudouridine (nucleic acid, listed as Homo sapiens)", "chain": "GGGAAAUAAGAGAGAAAAGAAGAGUAAGAAGAAAUAUAAGAGCCACCAUGGCCGGUCCCGCGACCCAAAGCCCCAUGAAACUUAUGGCCCUGCAGUUGCUGCUUUGGCACUCGGCCCUCUGGACAGUCCAAGAAGCGACUCCUCUCGGACCUGCCUCAUCGUUGCCGCAGUCAUUCCUUUUGAAGUGUCUGGAGCAGGUGCGAAAGAUUCAGGGCGAUGGAGCCGCACUCCAAGAGAAGCUCUGCGCGACAUACAAACUUUGCCAUCCCGAGGAGCUCGUACUGCUCGGGCACAGCUUGGGGAUUCCCUGGGCUCCUCUCUCGUCCUGUCCGUCGCAGGCUUUGCAGUUGGCAGGGUGCCUUUCCCAGCUCCACUCCGGUUUGUUCUUGUAUCAGGGACUGCUGCAAGCCCUUGAGGGAAUCUCGCCAGAAUUGGGCCCGACGCUGGACACGUUGCAGCUCGACGUGGCGGAUUUCGCAACAACCAUCUGGCAGCAGAUGGAGGAACUGGGGAUGGCACCCGCGCUGCAGCCCACGCAGGGGGCAAUGCCGGCCUUUGCGUCCGCGUUUCAGCGCAGGGCGGGUGGAGUCCUCGUAGCGAGCCACCUUCAAUCAUUUUUGGAAGUCUCGUACCGGGUGCUGAGACAUCUUGCGCAGCCGUGAAGCGCUGCCUUCUGCGGGGCUUGCCUUCUGGCCAUGCCCUUCUUCUCUCCCUUGCACCUGUACCUCUUGGUCUUUGAAUAAAGCCUGAGUAGGAAG", "modifications": "Cap1; polyA; 5-methylcytosine, pseudouridine"}},
  "key": {"[1]": {"assay": "Non-human primate in vivo study for G-CSF and EPO, serum protein by ELISA", "parameters": "species or system cynomolgus monkey", "procedure": "(§1) Formulations, listed in Table 31, were characterized by particle size, zeta potential, and encapsulation.\nLNP formulations, shown in Table 31 (above), were administered to non-human primates (NHP) (cynomolgus monkey) (n=2) as intravenous injection (IV). The NHP were administered a single modified mRNA IV dose of 0.5 mg/kg, 0.05 mg/kg or 0.005 mg/kg of G-CSF or EPO in a dose volume of 0.5 mL/kg. The NHPs were bled before dosing with the modified mRNA LNP formulations to determine protein expression in the serum and a baseline complete blood count. After administration with the G-CSF modified mRNA formulation the NHP were bled at 8, 24, 48 and 72 hours to determined protein expression. After administration with the EPO modified mRNA formulation the NHP were bled at 8, 24, 48, 72 hours and 7 days to determined protein expression.\nSamples collected from the NHPs after they were administered with G-CSF or EPO modified mRNA formulations were analyzed by ELISA to determine protein expression. Neutrophil and reticulocyte count was also determined pre-dose, 24 hours, 3 days, 7 days, 14 days and 18 days after administration of the modified G-CSF or EPO formulation."}, "[2]": {"assay": "LNP in vivo study IV, IM, SC, serum G-CSF or EPO by ELISA", "settings": "rats, 0.05 mg/kg", "procedure": "as §1\nLNP formulations, shown in Table 31 (above), were administered to rats (n=5) intravenously (IV), intramuscularly (IM) or subcutaneously (SC) at a single modified mRNA dose of 0.05 mg/kg. A control group of rats (n=4) was untreated. The rats were bled at 2 hours, 8 hours, 24 hours, 48 hours and 96 hours and after they were administered with G-CSF or EPO modified mRNA formulations to determine protein expression using ELISA. The rats administered EPO modified mRNA intravenously were also bled at 7 days."}, "[3]": {"assay": "Non-human primate in vivo study, serum G-CSF or EPO by ELISA", "parameters": "species or system cynomolgus monkey", "settings": "for Female NHP Serum Concentration / Male NHP Serum Concentration: G-CSF LNP, 0.05 mg/kg IV", "procedure": "as §1\nLNP formulations, shown in Table 31 (above), were administered to non-human primates (NHP) (cynomolgus monkey) (n=2) as a bolus intravenous injection (IV) over approximately 30 seconds using a hypodermic needle, which may be attached to a syringe/abbocath or butterfly if needed. The NHP were administered a single modified mRNA IV dose of 0.05 mg/kg of EPO or G-CSF or 0.005 mg/kg of EPO in a dose volume of 0.5 mL/kg. The NHPs were bled 5-6 days before dosing with the modified mRNA LNP formulations to determine protein expression in the serum and a baseline complete blood count. After administration with the modified mRNA formulation the NHP were bled at 8, 24, 48 and 72 hours to determined protein expression. At 24 and 72 hours after administration the complete blood count of the NHP was also determined. Protein expression of G-CSF and EPO was determined by ELISA. Urine from the NHPs was collected over the course of the entire experiment and analyzed to evaluate clinical safety. Samples were collected from the NHPs after they were administered with G-CSF or EPO modified mRNA formulations to determine protein expression using ELISA. Clinical chemistry, hematology, urinalysis and cytokines of the non-human primates were also analyzed."}, "[4]": {"settings": "for Serum Concentration 8-12 hours after administration: G-CSF; for G-CSF Protein Expression, Conc: mice IV, serum 8 hrs"}, "[5]": {"assay": "Time course in vivo study of LNP, serum G-CSF or EPO by ELISA", "settings": "mice IV", "procedure": "as §1\nLNP formulations, shown in Table 31 (above), were administered to mice (n=5) intravenously (IV) at a single modified mRNA dose of 0.5, 0.05 or 0.005 mg/kg. The mice were bled at 8 hours, 24 hours, 72 hours and 6 days after they were administered with G-CSF or EPO modified mRNA formulations to determine protein expression using ELISA."}},
  "note": "Read-outs that look alike come from different tables or passages of the source.",
  "data": [
    {"molecule": "B1", "values": [
      {"measurement": "Male NHP Serum G-CSF Concentration", "setting": "[1]; 0.005 mg/kg IV LNP, 24 hours", "value": "<39", "unit": "pg/mL"},
      {"measurement": "Male NHP Serum G-CSF Concentration", "setting": "[1]; 0.005 mg/kg IV LNP, 48 hours", "value": "<39", "unit": "pg/mL"},
      {"measurement": "Male NHP Serum G-CSF Concentration", "setting": "[1]; 0.005 mg/kg IV LNP, 72 hours", "value": "<39", "unit": "pg/mL"},
      {"measurement": "Male NHP Serum G-CSF Concentration", "setting": "[1]; 0.005 mg/kg IV LNP, Pre-bleed", "value": "<39", "unit": "pg/mL"},
      {"measurement": "Female NHP Serum G-CSF Concentration", "setting": "[1]; 0.05 mg/kg IV LNP, 8 hours", "value": "3,289 pg/ml"},
      {"measurement": "Male NHP Serum G-CSF Concentration", "setting": "[1]; 0.05 mg/kg IV LNP, 8 hours", "value": "1,722 pg/ml"},
      {"measurement": "Female NHP Serum G-CSF Concentration", "setting": "[1]; 0.05 mg/kg IV LNP, 24 hours", "value": 722, "unit": "pg/mL"},
      {"measurement": "Male NHP Serum G-CSF Concentration", "setting": "[1]; 0.05 mg/kg IV LNP, 24 hours", "value": 307, "unit": "pg/mL"},
      {"measurement": "Male NHP Serum G-CSF Concentration", "setting": "[1]; 0.05 mg/kg IV LNP, 48 hours", "value": "<39", "unit": "pg/mL"},
      {"measurement": "Male NHP Serum G-CSF Concentration", "setting": "[1]; 0.05 mg/kg IV LNP, 72 hours", "value": "<39", "unit": "pg/mL"},
      {"measurement": "Male NHP Serum G-CSF Concentration", "setting": "[1]; 0.05 mg/kg IV LNP, Pre-bleed", "value": "<39", "unit": "pg/mL"},
      {"measurement": "Male NHP Serum G-CSF Concentration", "setting": "[1]; 0.5 mg/kg IV LNP, Pre-bleed, limit of detection 39 pg/ml", "value": "<39", "unit": "pg/mL"},
      {"measurement": "time beyond which protein expression was not detected", "setting": "[1]; NHP IV, G-CSF LNP", "value": "≤ 72", "unit": "h"},
      {"measurement": "time out to which protein expression was detectable", "setting": "[2]; intravenous", "value": 7, "unit": "days"},
      {"measurement": "time out to which protein expression was detectable", "setting": "[2]; subcutaneous and intramuscular", "value": "at least 8 hours"},
      {"measurement": "Female NHP Serum Concentration", "setting": "[3]; 8 hours", "value": 3289, "unit": "pg/mL"},
      {"measurement": "Male NHP Serum Concentration", "setting": "[3]; 8 hours", "value": 1722, "unit": "pg/mL"},
      {"measurement": "Female NHP Serum Concentration", "setting": "[3]; 48 hours", "value": 0, "unit": "pg/mL"},
      {"measurement": "Male NHP Serum Concentration", "setting": "[3]; 48 hours", "value": 0, "unit": "pg/mL"},
      {"measurement": "Female NHP Serum Concentration", "setting": "[3]; 72 hours", "value": 0, "unit": "pg/mL"},
      {"measurement": "Male NHP Serum Concentration", "setting": "[3]; 72 hours", "value": 0, "unit": "pg/mL"},
      {"measurement": "Female NHP Serum Concentration", "setting": "[3]; Pre-bleed", "value": 0, "unit": "pg/mL"},
      {"measurement": "Male NHP Serum Concentration", "setting": "[3]; Pre-bleed", "value": 0, "unit": "pg/mL"},
      {"measurement": "time out to which protein expression was detectable", "setting": "[3]; NHP IV, LNP, 0.05 mg/kg", "value": 24, "unit": "h"},
      {"measurement": "Serum Concentration 8-12 hours after administration", "setting": "[4]; IM, 100 ug, saline", "value": "~20 to 80", "unit": "pg/mL"},
      {"measurement": "Serum Concentration 8-12 hours after administration", "setting": "[4]; IV (LNP), 1 ug", "value": "~20,000 pg/ml"},
      {"measurement": "Serum Concentration 8-12 hours after administration", "setting": "[4]; IV (LNP), 10 ug", "value": "~1,000,000 pg/ml"},
      {"measurement": "Serum Concentration 8-12 hours after administration", "setting": "[4]; IV (LNP), 100 ug", "value": "~5,000,000 pg/ml"},
      {"measurement": "Serum Concentration 8-12 hours after administration", "setting": "[4]; IV (Lipoplex), 100 ug", "value": "~30", "unit": "pg/mL"},
      {"measurement": "Serum Concentration 8-12 hours after administration", "setting": "[4]; SC, 100 ug, saline", "value": "~10 to 40", "unit": "pg/mL"},
      {"measurement": "G-CSF Protein Expression, Conc", "setting": "[4]; LNP NPA-030-1, 10 ug", "value": "~1200", "unit": "ng/mL"},
      {"measurement": "G-CSF Protein Expression, Conc", "setting": "[4]; LNP NPA-030-1, 100 ug", "value": "~4700", "unit": "ng/mL"},
      {"measurement": "G-CSF Serum Concentration", "setting": "[5]; LNP NPA-030-2, 0.005 mg/kg, 8 hours", "value": "1,550.6 pg/ml"},
      {"measurement": "G-CSF Serum Concentration", "setting": "[5]; LNP NPA-030-2, 0.005 mg/kg, 24 hours", "value": "5,068.9 pg/ml"},
      {"measurement": "G-CSF Serum Concentration", "setting": "[5]; LNP NPA-030-2, 0.05 mg/kg, 8 hours", "value": "462,312.5 pg/ml"},
      {"measurement": "G-CSF Serum Concentration", "setting": "[5]; LNP NPA-030-2, 0.05 mg/kg, 24 hours", "value": "80,903.8 pg/ml"},
      {"measurement": "G-CSF Serum Concentration", "setting": "[5]; LNP NPA-030-2, 0.5 mg/kg, 8 hours", "value": ">1,250,000 pg/ml"},
      {"measurement": "G-CSF Serum Concentration", "setting": "[5]; LNP NPA-030-2, 0.5 mg/kg, 24 hours", "value": "495,812.5 pg/ml"},
      {"measurement": "G-CSF Serum Concentration", "setting": "[5]; LNP NPA-030-2, 0.5 mg/kg, 72 hours", "value": "1,325.6 pg/ml"},
      {"measurement": "time out to which protein expression was detectable", "setting": "[5]; LNP, 0.005 mg/kg and 0.05 mg/kg", "value": 72, "unit": "h"}
    ]}
  ]
}
